These results are taken from patent US20080311034A1 (published 2008).

For assay [1], the target named is T1, recombinant polyhistidine tagged mouse FcγRII (R&D Systems) (mouse, UniProt P08101 40-217, limits assumed).
T1 construct: Bought; also called FcRII
T1 sequence (looked up): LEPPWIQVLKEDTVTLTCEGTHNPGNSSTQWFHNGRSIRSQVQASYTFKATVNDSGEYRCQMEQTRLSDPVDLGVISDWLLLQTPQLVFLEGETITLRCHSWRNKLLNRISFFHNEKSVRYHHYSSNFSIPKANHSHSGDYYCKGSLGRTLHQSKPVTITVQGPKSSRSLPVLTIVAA
The assay can be described thus: ELISA, His-tagged mouse receptor captured on copper-coated plate. As to the method: (§1) Commercially-available recombinant polyhistidine tagged mouse FcγRI, FcγRII, FcγRIII, and FcγRIV (R&D Systems) were diluted to 1 μg/ml in PBS and 100 μl/well was captured onto copper-coated plates (Pierce) overnight at 4° C. Plates were washed three times with wash buffer (0.15M NaCl, 0.02% Tween 20). Non-specific binding was blocked using 200 μl/well SuperBlock (Pierce) for 15 minutes at room temperature. Plates were washed three times as above. […] Plates were washed three times as above to remove unbound mAb. CNTO 860 variants that bound to plated receptors were detected using 100 μl/well HRP-labeled goat F(ab′)₂ anti-human IgG F(ab′)₂ (Jackson ImmunoResearch) diluted 1:5,000 in PBS incubated at room temperature for 1 hour. Plates were washed five times using wash buffer as above, and developed using 100 μl/well TMB Stable Stop substrate (Fitzgerald Industries) stopped with 0.5M HCl. Absorbance was detected at 450 nm.
(§2) All binding assays were in an ELISA format, with recombinant soluble receptor captured on coated EIA plates.
(ELISA stands for enzyme-linked immunosorbent assay.)

For assay [2], the target named is T2, recombinant polyhistidine tagged mouse FcγRIII (R&D Systems) (mouse, UniProt P08508 31-215).
T2 construct: Bought
T2 sequence (looked up): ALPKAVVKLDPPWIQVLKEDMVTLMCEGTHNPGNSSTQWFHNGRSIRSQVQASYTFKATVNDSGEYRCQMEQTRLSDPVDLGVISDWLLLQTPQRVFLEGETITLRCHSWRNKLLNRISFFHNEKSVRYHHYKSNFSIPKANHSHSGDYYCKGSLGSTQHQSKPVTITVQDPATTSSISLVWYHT
The description is as above. As to the method:
as §1, §2

The target of assay [3] is T3, recombinant polyhistidine tagged mouse FcγRIV (R&D Systems) (mouse, UniProt A0A0B4J1G0 21-203).
T3 construct: Bought
T3 sequence: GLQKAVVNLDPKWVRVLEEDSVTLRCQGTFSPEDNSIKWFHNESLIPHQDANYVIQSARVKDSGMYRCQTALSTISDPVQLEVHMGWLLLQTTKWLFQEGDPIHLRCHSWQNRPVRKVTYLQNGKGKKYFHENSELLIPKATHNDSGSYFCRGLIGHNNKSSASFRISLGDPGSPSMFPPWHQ
The assay is described as above. As to the method:
as §1, §2

Assay [4] has as its target T4, recombinant human His-tagged FcγRIIa (R&D Systems #1330-CD-050) (human, UniProt P12318 36-218, limits assumed).
T4 construct: Bought; also called CD32a; recombinant, soluble, human FcγRIIa
T4 sequence (looked up): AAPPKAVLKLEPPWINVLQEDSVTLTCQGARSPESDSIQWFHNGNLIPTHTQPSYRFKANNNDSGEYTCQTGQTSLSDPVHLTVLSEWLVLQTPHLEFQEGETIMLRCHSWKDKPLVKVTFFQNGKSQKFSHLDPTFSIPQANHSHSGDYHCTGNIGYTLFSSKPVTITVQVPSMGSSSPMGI
The experiment in a line: AlphaScreen, His-tagged FcγRIIa on nickel acceptor beads. As to the method: FcγRIIa (CD32a) AlphaScreen—Nickel acceptor beads (Perkin Elmer #6760619C) were diluted 1:50 in assay buffer (PBS, pH 7.4, 4 mg/ml BSA, 0.01% Tween-20), and 27.5 μl were added to each well of a Nunc V-bottom polypropylene plate (VWR # 62409-108) (Powers G., Notebook 9006, pp. 169-175, 182-185). A 2.0 μg/ml solution of recombinant human His-tagged FcγRIIa (R&D Systems #1330-CD-050) was prepared in assay buffer and 27.5 μl added to each well of a separate Nunc V bottom polypropylene plate. Titrations of test Abs were prepared in the Nunc V bottom polypropylene plate starting at 30 μg/ml. A 2 μg/ml solution of biotinylated goat F(ab′)₂ anti-human IgG F(ab′)₂ (Jackson Immunoresearch #109-066-097) was prepared in assay buffer and 27.5 μl added to each well of another Nunc V bottom polypropylene plate. A 1:50 dilution of streptavidin donor beads (PerkinElmer # 6760002) was prepared in assay buffer and 27.5 μl added to each well of another Nunc V bottom polypropylene plate. A volume of 5 μl of each reagent was added to the corresponding quadrants of a low-volume, non-binding white 384-well plate (Corning # 3673) in the following order: acceptor beads, FcγRIIa, test Ab, biotinylated anti-human IgG F(ab′)₂, and streptavidin donor beads. The plates were incubated for 30 minutes with shaking and the O.D.s determined using an Envision plate reader.
On the technique in general: Bead proximity is the source of the signal in Alpha formats.

Assay [5] deals with T5, recombinant polyhistidine tagged mouse FcγRI (R&D Systems) (mouse, UniProt P26151 25-297).
T5 construct: Bought; also called murine FcγRI
T5 sequence (looked up): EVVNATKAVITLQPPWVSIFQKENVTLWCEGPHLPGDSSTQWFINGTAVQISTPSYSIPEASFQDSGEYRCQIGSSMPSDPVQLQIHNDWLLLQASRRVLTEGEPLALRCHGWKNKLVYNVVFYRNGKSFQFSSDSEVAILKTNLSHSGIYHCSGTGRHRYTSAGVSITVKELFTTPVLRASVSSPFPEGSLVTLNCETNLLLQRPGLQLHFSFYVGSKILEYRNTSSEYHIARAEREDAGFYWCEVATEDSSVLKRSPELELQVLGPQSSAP
The assay can be described thus: ELISA, His-tagged mouse receptor captured on copper-coated plate. As to the method:
as §1, §2

B1: CHO-CNTO 860 WT (antibody, human IgG1, kappa)
heavy: not shown
light: DIQMTQSPSSLSASVGDRVTITCKASQDIRKYLNWYQQKPGKAPKLLIYYATSLADGVPSRFSGSGSGTDYTFTISSLQPEDIATYYCLQHGESPYTFGQGTKLEITRTVAAPSVFIFPPSDEQLKSGTASVVCLLNNFYPREAKVQWKVDNALQSGNSQESVTEQDSKDSTYSLSSTLTLSKADYEKHKVYACEVTHQGLSSPVTKSFNRGEC
modifications: N-linked glycan at heavy chain Asn297 (CHO-type, highly fucosylated); not carried by the letters
notes: Anti-human tissue factor human IgG1/kappa; transiently expressed in CHO cells (plasmids p4145/p4146; CHO Abs typically 95% fucosylated), purified by protein A; also called CNTO 860 WT from CHO cells; WT (CHO cell-derived); copies: 2 + 2
In the case of B1, the “ECOD1 (concentration required for an O.D. value of 1.0)” value (from here on “ECOD1”) in assay [1] came to 4000 ng/mL; in assay [2], 4000 ng/mL; in assay [3], 60 ng/mL. For the same molecule, the “concentration (ng/ml) required for a set O.D. signal” value (shortened to “concentration (ng/ml) required”) in assay [4] amounted to 97 ng/mL.

B2: YB2/0-CNTO 860 A330I/I332E (antibody, human IgG1, kappa)
heavy: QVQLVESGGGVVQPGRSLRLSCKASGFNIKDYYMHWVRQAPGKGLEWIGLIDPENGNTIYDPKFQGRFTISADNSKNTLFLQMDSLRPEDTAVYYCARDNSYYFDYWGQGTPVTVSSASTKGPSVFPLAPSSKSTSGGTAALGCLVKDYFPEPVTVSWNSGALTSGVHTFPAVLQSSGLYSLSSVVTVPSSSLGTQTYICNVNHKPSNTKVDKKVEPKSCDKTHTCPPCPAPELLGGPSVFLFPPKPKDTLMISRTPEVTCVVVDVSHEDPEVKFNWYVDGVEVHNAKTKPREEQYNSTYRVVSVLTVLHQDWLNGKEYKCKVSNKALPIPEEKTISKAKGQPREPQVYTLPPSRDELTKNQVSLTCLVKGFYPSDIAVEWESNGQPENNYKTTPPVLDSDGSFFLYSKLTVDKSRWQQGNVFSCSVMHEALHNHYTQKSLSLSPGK
light: DIQMTQSPSSLSASVGDRVTITCKASQDIRKYLNWYQQKPGKAPKLLIYYATSLADGVPSRFSGSGSGTDYTFTISSLQPEDIATYYCLQHGESPYTFGQGTKLEITRTVAAPSVFIFPPSDEQLKSGTASVVCLLNNFYPREAKVQWKVDNALQSGNSQESVTEQDSKDSTYSLSSTLTLSKADYEKHKVYACEVTHQGLSSPVTKSFNRGEC
modifications: N-linked glycan at heavy chain Asn297 (YB2/0-type, low fucose); not carried by the letters
notes: IgG1/kappa Fc variant; stably expressed in YB2/0 cells (p4178/p2402); EU numbering; also called A330I/I332E (YB2/0 cell-derived); A330I/I332E from YB2/0 cells; copies: 2 + 2
As to B2, the “ECOD1” value in assay [1] was determined as 3000 ng/mL; in assay [5], 10000 ng/mL; in assay [2], 3000 ng/mL; in assay [3], 7 ng/mL. For the same molecule, the “concentration (ng/ml) required” value in assay [4] stood at 1500 ng/mL.

B3: YB2/0-CNTO 860 A330Y (antibody, human IgG1, kappa)
heavy: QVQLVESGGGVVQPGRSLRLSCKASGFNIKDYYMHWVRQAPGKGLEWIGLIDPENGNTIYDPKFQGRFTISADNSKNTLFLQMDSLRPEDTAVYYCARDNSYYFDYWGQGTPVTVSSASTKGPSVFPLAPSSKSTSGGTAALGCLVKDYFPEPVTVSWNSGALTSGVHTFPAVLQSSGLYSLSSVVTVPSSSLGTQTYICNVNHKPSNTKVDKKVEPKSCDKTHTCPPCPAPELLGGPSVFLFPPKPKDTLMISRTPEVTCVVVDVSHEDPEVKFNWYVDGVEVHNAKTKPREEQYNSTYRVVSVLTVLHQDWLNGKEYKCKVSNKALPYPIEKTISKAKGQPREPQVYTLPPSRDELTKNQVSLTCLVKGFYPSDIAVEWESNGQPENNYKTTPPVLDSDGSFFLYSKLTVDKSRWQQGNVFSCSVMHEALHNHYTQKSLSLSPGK
light: DIQMTQSPSSLSASVGDRVTITCKASQDIRKYLNWYQQKPGKAPKLLIYYATSLADGVPSRFSGSGSGTDYTFTISSLQPEDIATYYCLQHGESPYTFGQGTKLEITRTVAAPSVFIFPPSDEQLKSGTASVVCLLNNFYPREAKVQWKVDNALQSGNSQESVTEQDSKDSTYSLSSTLTLSKADYEKHKVYACEVTHQGLSSPVTKSFNRGEC
modifications: N-linked glycan at heavy chain Asn297 (YB2/0-type, low fucose); not carried by the letters
notes: IgG1/kappa Fc variant; stably expressed in YB2/0 cells (p4176/p2402); EU numbering; also called A330Y (YB2/0 cell-derived); copies: 2 + 2
Take B3: the “ECOD1” value in assay [1] is 6000 ng/mL; in assay [5], 4000 ng/mL; in assay [2], 6500 ng/mL; in assay [3], 30 ng/mL. The “concentration (ng/ml) required” value in assay [4] is 78 ng/mL.

B4: CHO-CNTO 860 I332E (antibody)
heavy: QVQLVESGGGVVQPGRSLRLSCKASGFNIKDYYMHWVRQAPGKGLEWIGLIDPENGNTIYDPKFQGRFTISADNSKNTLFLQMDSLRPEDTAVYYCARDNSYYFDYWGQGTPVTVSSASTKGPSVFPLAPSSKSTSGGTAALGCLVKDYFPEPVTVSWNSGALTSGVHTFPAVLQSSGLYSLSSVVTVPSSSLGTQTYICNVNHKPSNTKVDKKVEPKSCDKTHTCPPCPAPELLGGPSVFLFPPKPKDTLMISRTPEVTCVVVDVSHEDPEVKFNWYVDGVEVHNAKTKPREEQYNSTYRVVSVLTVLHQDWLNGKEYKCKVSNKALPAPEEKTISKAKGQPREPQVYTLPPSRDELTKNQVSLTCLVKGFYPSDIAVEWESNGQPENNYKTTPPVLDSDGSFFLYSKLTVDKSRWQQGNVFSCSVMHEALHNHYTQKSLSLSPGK
light: DIQMTQSPSSLSASVGDRVTITCKASQDIRKYLNWYQQKPGKAPKLLIYYATSLADGVPSRFSGSGSGTDYTFTISSLQPEDIATYYCLQHGESPYTFGQGTKLEITRTVAAPSVFIFPPSDEQLKSGTASVVCLLNNFYPREAKVQWKVDNALQSGNSQESVTEQDSKDSTYSLSSTLTLSKADYEKHKVYACEVTHQGLSSPVTKSFNRGEC
modifications: N-linked glycan at Asn297 of the heavy chain (CHO-type, highly fucosylated); not carried by the letters
notes: IgG1/kappa Fc variant; transiently expressed in CHO cells (p4157/p4146); also called I332E (CHO cell-derived); I332E from CHO cells; copies: 2 + 2
In the case of B4, the “ECOD1” value in assay [1] amounted to 1500 ng/mL; in assay [5], 4000 ng/mL; in assay [2] it was 1600 ng/mL; in assay [3], 13 ng/mL. In assay [4], the “concentration (ng/ml) required” value turned out to be 76 ng/mL.
